US20190248882A1 (ALLERGAN, published 2019)

Biological target: T1, human ANG-2 (R&D Systems) (human, UniProt O15123 68-496, limits assumed, biotinylated in the Tie-2 competition ELISA (site not stated))
T1 construct: Protein bought from R&D Systems; It was unlabelled in the Octet assay and biotinylated in the ELISA; also called angiopoietin-2; ANGPT2
T1 sequence: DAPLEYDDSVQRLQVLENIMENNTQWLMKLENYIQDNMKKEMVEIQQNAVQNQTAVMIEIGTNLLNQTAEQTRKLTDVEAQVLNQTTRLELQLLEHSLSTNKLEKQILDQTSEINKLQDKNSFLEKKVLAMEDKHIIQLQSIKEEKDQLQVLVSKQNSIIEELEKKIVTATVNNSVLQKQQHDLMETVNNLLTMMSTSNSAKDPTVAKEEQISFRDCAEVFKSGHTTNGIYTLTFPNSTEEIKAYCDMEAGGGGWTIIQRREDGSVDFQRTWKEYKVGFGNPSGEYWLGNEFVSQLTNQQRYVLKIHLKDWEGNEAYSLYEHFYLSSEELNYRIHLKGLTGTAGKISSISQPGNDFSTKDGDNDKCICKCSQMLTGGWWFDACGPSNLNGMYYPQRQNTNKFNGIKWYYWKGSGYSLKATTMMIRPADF
Experiment: BLI (Octet QKe); HCAb captured on anti-hIgG Fc tips, ANG-2 at 20 to 500 nM in solution
Protocol: Affinity measurements were performed using a fortéBIO OCTET® QK^e system equipped with anti-hlgG Fc capture (AHC) biosensor tips and strepavidin-coated biosensors (fortéBIO, Menlo Park, Calif.). For AHC affinity measurement, purified anti-ANG-2 HCAb A33A8 was tested for its binding capacity with AHC sensor tips. Tips were loaded using 20 μg/ml anti-ANG-2 A33A8 HCAb. Loading proceeded for 300 sec resulting in capture levels of between 1.8 and 2 nm. ANG-2 (R & D systems) antigen was prepared for binding analysis by dilution to concentrations of 20 to 500 nM in 1×PBS. Association was initiated and monitored for 200 sec, after which tips were transferred to 1×PBS buffer without Factor protein (Gibco, PBS pH 7.2), in order to monitor dissociation. Anti-ANG-2 A33A8 HCAb binding activity was then monitored in real time using bio-layer interferometry analysis. Antigen binding affinities were calculated for the tested ANG-2 based on the measured association (“Kassoc”) and dissociation (“Kdissoc”) constants. Data were processed and analyzed using the OCTET® data analysis software 6.4 (fortéBIO) (FIG. 4).

B1: A33A8 human anti-ANG-2 HCAb (antibody, human IgG1, V domains shown)
VH: QVQLVESGGGLVQPGGSLRLSCAASGFTFSSYWMHWVRQAPGKGLVWVSRINSDGSSTSYADSVKGRFTISRDNAKNTLYLQMNSLRAEDTAVYYCAREGYSSGGQFDYWGQGTLVTVSS
notes: also called anti-ANG-2 HCAb A33A8; anti-ANG-2 A33A8 HCAb
In the case of B1, the Kd is reported as < 1 pM.
